Experimental data as given in article PMC6965642, “The novel missense mutation Met48Lys in FKBP22 changes its structure and functions” (Scientific Reports, 2020).
Numbering of substitutions follows the chain as printed. Names and notes keep the numbering of the source.

Key:
[1] = target: type X collagen (Homo sapiens) (UniProt Q03692); settings: cited from earlier work
[2] = target: mouse type IV collagen (mouse); assay: SPR; BIAcore X; collagens immobilised on CM5 chips by amide coupling, FKBP22 injected; 20 °C; HBS-P (10 mM Hepes pH 7.4, 150 mM NaCl, 0.005% Surfactant P20) with 1 mM CaCl2; flow 10 µL/min; steady-state affinity model for type IV collagen - WT FKBP22, Langmuir-binding model for type X collagen - M48K FKBP22
[3] = target: T1, human recombinant type X collagen (human, UniProt Q03692 19-680); assay: as above; settings: both partners purified
T1 construct: type X collagen, human, recombinant; source: 293 cells, purified as described previously
T1 sequence (Q03692 19-680): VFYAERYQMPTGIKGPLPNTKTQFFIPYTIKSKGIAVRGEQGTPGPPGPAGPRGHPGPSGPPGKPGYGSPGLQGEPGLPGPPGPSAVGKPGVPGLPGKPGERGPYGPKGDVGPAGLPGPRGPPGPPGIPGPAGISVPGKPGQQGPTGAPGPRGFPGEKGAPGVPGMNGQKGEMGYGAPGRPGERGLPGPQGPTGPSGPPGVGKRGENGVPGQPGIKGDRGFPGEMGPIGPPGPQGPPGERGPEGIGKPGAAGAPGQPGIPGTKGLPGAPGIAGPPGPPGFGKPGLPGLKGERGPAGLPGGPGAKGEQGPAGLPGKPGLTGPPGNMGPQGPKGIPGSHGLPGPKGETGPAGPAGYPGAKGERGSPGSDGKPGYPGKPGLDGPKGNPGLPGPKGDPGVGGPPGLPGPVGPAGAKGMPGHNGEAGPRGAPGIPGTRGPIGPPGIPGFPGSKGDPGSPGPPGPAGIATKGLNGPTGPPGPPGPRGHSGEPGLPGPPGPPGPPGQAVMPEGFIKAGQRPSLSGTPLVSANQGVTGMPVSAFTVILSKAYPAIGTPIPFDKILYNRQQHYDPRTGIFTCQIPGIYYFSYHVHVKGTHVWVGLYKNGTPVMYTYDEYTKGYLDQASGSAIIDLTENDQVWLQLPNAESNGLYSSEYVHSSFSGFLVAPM

type X collagen (Homo sapiens), sequence (Q03692 19-680): as above

Molecule: FKBP22 (from UniProt Q9NWM8)
- Kd [1]: 43 µM

B1: recombinant human wild type FKBP22 (FK506 Binding Protein 22 kDa) (enzyme)
chain: LIPEPEVKIEVLQKPFICHRKTKGGDLMLVHYEGYLEKDGSLFHSTHKHNNGQPIWFTLGILEALKGWDQGLKGMCVGEKRKLIIPPALGYGKEGKGKIPPESTLIFNIDLLEIRNGPRSHESFQEMDLNDDWKLSKDEVKAYLKKEFEKHGAVVNESHHDALVEDIFDKEDEDKDGFISAREFTYKHDEL
- Kd [2]: 310 µM

B2: recombinant human M48K FKBP22 (Met48Lys) (enzyme)
chain: B1 chain with M28K
notes: The mutation was found in a patient with kEDS; PDB 4MSP is the WT structure (parent); also called mutant FKBP22; source: E. coli BL21 (DE3), solubilised with 2 M urea, purified (Co2+-chelating column, enterokinase cleavage, Phenyl column)
- Kd [3]: 5.3 ± 4 µM
